From the nanobody polyreactivity screen of Harvey et al. (2022)

Assay: yeast display, Sf9 membrane polyspecificity reagent, FACS + sequencing; frameworks hold sequencing errors
Summary of the method: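 After 36–48 hours of galactose induction, yeast (Saccharomyces cerevisiae BJ5465) displaying a synthetic nanobody library were stained at 4 °C for 1 hour with 10% biotinylated, detergent-solubilized Sf9 membrane reagent. Streptavidin microbeads enriched the stained cells before FACS sorting into low and high (top ~1%) gates on anti-HA and streptavidin fluorescence. Each clone's polyreactivity label reflects its gate of origin.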

Sequence	polyreactivity (PSR sort gate)
QVQLVESGGGLVQAGCSLRLSCAASGFIFGRYTMGWYRQAPGKERELVAAISGSDVSTYYADSVKGRFTISRDNAKNTVYLQMNSLKPEDTAVYYCNAGPWWYLHEYDYWGQGTQVTVSS	low polyreactivity
QVQLVESGGGLVQEGGSLRLSCAASGYIFYYYAMGRYIQAPGKERELVAAISTSDTRTFYADSVKGRFTISRDNAKNTVYLQMNSRKPEDTAVYFCAASLYKGGPNYGYEYWGQGTQVTVSS	low polyreactivity
QVQLVESGGGLVQAGGSLRLSCAASGSIFSTYVMVWYRQAPGKERELVAAITVSVGSTYYADSVKGRFTISRDNAKNTVYLQMNSLKPEDTAVYYCAAYGGTGYPFDAYYHDYDYWGQGTQVTVSS	low polyreactivity
QVQLVESGGGLVQAGGSLRLSCAASGFIFSVNTMGWYRQAPGKERELVAAISGSGGSTYYADSVKGRFTISRDNAKITVYFQMNSLKPDDTAVYYCAARYTVTYDYWGQCTQVTVSS	high polyreactivity
QVQLVESGGGLVQAGGSLRLSCAASGSTLHSYAMGWYRQAPGKERELVAALSFRGGSTYADSVKGRFTISRDNAKNTVYLQMNSLKPEDTAVYYCATRSTRADWYIVGYDYWGQGTQVTVSS	low polyreactivity
QVQLLESGGGLVQAGGSLRLSCAASGRTFRRYAMGWYRQAPGKERELVAAISYSGTTTYYADSVKGRFTISRDNAKNTVYLQMNSLKPEDTAVYYCNKATAYGLDYWGQGTQVTVSS	high polyreactivity
QVQLVESGGGLVQAGGSLRLSCAASGRIFYYYAMGWYRQAPGKERELVAVISRGGRTKYADSVKGRFTISRDNAKNTVYLQMNSLKPEDTAFYYCAAYPSYYGDSGLRYDYWGQGTQVPVSS	high polyreactivity
QVQLVESGGGLVQAGGSLRLSCAASGRTYINNAMGWYRQAPGKERELVAAISRRGGSTYYADSVKGRFTISRDNAKNTVYLQMNSLKPEDTAVSYCAADAFRSQRPYTYDYWGQGTQVTVSS	high polyreactivity
QVQLVESGGGLVQAGGSLRISCAASGITFTSYAMGWYRQAPGKERELVAAISSSGVRTYYADSVKGRFTISRDNAKNTVYLQLNSLKPEDTAVYYCATRRRVLDGYDYGGQGTQVTVSS	high polyreactivity
QVQLVESGGGLVQAGGSLRLSCAASGFIFSYYAMGWYRQAPGKERELVAAISRNGGRTYYADSVKGRFTISRDNAKNTVYLQMNSLIPEDTAVYYCAATTYRTSSYIRYGSPKHDDYWGQGTHVTVSS	high polyreactivity
QDQLVESGGGLVQAGGSLRLSCAASGITFAGNAMGWYRQAPGKERELVAAISGSGGSTSYADSVKGRFTISRDNAKNTVYLQMNSLKPEDTAVYYCAAASRLYNWHALFGSWGQGTQVTVSS	low polyreactivity
QVQLVESGGGLVQAGVSLRLSCAASGRIFGTNAMGWYRQAPGKERELVADITSGGSTNYADSVKGRFTISRDTAKNTVYLQMNSLKPEDTALYYCAADVIGDMRWYRDEYRGQGTQVTVSS	low polyreactivity
QVHLVESGGGLVQAGGSHRITCAASGITFVGNARGWYRQAPGKERELVAAIRWSSGRTYYADSVKGRFTISRDNAKNTVYLQMNSLKPEDTAVYYCATDYHYSQYYRFYYWGQGTQVTVSS	high polyreactivity
QVQLVESGGGLVQAGGSLRLSCAASGSTFYAYAMGWYRQAPGKERELVAAIDSGGSTYYADSVKGRFTISRDNAKNTVYLQMNSLKPEDTAVYYCAVRHRYTRAYWGRVYWGQGTQVTVSS	low polyreactivity
QVQLVESGGGLVQAGGSLRLSCAASGFTSLVNAMGWYRQAPGKERELVAAITGGGSTNYADSVKGRFTISRDNAKNTVYLQMNSLKPEDTAVYYCNAVGYYGYPRIPQFYAFAFYYWGQGTQVTVSS	low polyreactivity
QVQLVESGAGLVQAGGSLRLSCAASGRTFFVNAMGWYRQAPGKERELVATITFSGDSTYYADSVKGRFTISRDNAKNTVFLQMNSLKPEDTAVYYCAARTGYGYTRYEYWGQGTQVTVSS	high polyreactivity
QVQLVESGGGLVQAGGSLRLSCAASGSTFAFYAMGWYRQAPGTERELVAAIRSGGSTNYADSVKGRFTISRDNAKNTVYLQMNSLKPEDTAVYYCAARESDPGSHSVYREDDYWGQGTQVTVSS	low polyreactivity
QVQLVESGGGLVQAGGSLRLSCAASGRTIVYNAMGWYRQAPGKERELVAAITSRGGSTHYADSVKGRFTISRDNAKNTVYLQMNSLKPEDTAVYYCAADFLSPAYRPSWYRFDYWGQGTQVTVSS	low polyreactivity
QVQLVAGGGLVQAGGSLRLSCAASGSIFYSNAMGWYRQAPGKERELVAAISFSGGSTYYADSVKGRFTISRDNAKNTVYLQMNSLKPEDTAVYYCAAEFYKRKFGPFEYWGQGTQVTVSS	low polyreactivity
QLQLVESGGGLVQAGGSLRLSCAASGSTFLYNAMGWYRQAPGKERELVAAITVSDGSTYYADSVKGRFTISRDNAKNTVYLKMNSLKPVDTAVYYCNADFPRKTRYEYWGQGTQVTVSS	low polyreactivity
QVQLVESGGGLVQAGGSLRLSCAASGSIFGYKAMGWYRQAPRKERELVAAIRSSDSRTHYADSVKGRFTISRDNAKNTVYLQMNRLKPEDTAVYYCAAVKRRPGHYLYDYWGQGTQVTVSS	low polyreactivity
QVQLVESGGGLVQAGGILRLSCAASGSIIYVNAMGWYRQAPGKERELVAAISVRGGRTYYADSVKGRFTISRDNAKNSVYLQMISLKPEDTAVYDCAAGWYYYARPRVYNAREYYYWGQGTQVNVSS	high polyreactivity

Sequence	polyreactivity (PSR sort gate)
QVQLVESGGGLVQAGGSLRLSCAASGIIYKYAMGWYRQAPGKERELVATITWSDGSTYYADSVKGRFTISRDNAKNTVYLQMNSLKPDDTAVYYCAADDYYGYDYWGQGTQVTVSS	low polyreactivity
QVQLVESGGGLVQAGGSLRLSCAASGFNFSSYAMGWSRQAPGKERELVAAISGSGGTTYYADSVKGRFTISRDNAKNTVYLQMNSQKPEDTAVYYCATRLGLVITKYGYDYWGQGTQVTVSS	high polyreactivity
QVQLVESGGGLVQAGGSLRLSCGASGSTSVRYAMGWYRQAPGKERELVAAISSSGGSTYYAVSVKGRFTISRDTAKNTVYLQMNSLKPEDTAVYYCNAVPYTTFDWGQGTQVTVSS	low polyreactivity
QVQLVESGGGLVQAGGSLRLSCAASGSIFYVYAMGWYRQAPGKERELVAAINTAGGSTFYADSVKGRFTISRDNAKNPVSLQMTSLKPEETAVYYCAAERYRYRSTDTMGYWGQGTQVTVSS	low polyreactivity
QVQLVESGGGLVQAGGSLRISCAASGRTVWNTLGWYRQAPGKERELVAAISYSGGTTYYADSVKGRFTISRDNAKNTVYLQMNSLNPEDTAVYYCAAVRVLRGVKYNYWGQGTEVTVSS	high polyreactivity
QDQLVESGGGLVQAGGSLRLSCAASGSTFETNAMGWYRQAPGKERELVAAISGRGGSTYYADSVKGRFTFSRDNAKNTVYLQMNSLKPEDTAVFYCDATYGTGRRSKYGYCGQGTQVTVSS	high polyreactivity
QVQLVESGGGLVQAGGSLRLSCAASGSTFNLYAMGWYRQAPGKERELVASISRSGVSTYYADSVKGRFTISRDNAKNTVYLQMNSLKPEDTAVYYCAVDKVLYRLYPGMDYWGQGTQVTVSS	low polyreactivity
QVQLVESGGGLLQAGGSLRLSCAASGFTFSYYAKGWYRQAPGKERELVAVISDRGGITYYADSVKGRFTISRDNAKNTVYLQMNSVKPEDTAVYYCAADLDSWYGYYYIVEYWGQGTQVTVSS	low polyreactivity
QVQLVESGGGLVQAGGSLLLSCAASGFTFGFNAMGWYRQAPGQERELGAAISRGGSTNYADSVKGRFTISRDNAKNTVYVQMNSLKPEDTAVYDCAADFITYVFRFYYWGQGTLVTVSS	low polyreactivity
QVQLVESGGGLVQAGGSLRLSCAASGSTIEPYAMGWYRQAPGKERELLAAITLSAGSTYYADSVKGRFTISRDYAKNTVYLQMNSLNPEDTAVYYCNADYGYNNQLLWGYYGWSSDHWGQGTQVTVSS	low polyreactivity
QVQLVESGGGLVQAGGSLRLSCAASGSTFRRNAMGWYRQAPGKERELVAAISSSGGSTYYADSVKGRFTISRDNAKNTVFLQMNSLKPEDTAVYYCAAGYPTLRGYYYWGQGTQVTVSS	low polyreactivity
QVQLVESGGGLVQAGGSLRLSCAASGFTSLIYAMGWSRQAPGKESELVATITWGGGSTYADSVKGRFTISRDNAKNTVYLQMNSLKPEDTAVYYCNADIYDSWDYATVYSDRYDYWGQGTQVTVSS	low polyreactivity
QVQLVESGGGLVQAGGSLRLSCAASGRTFRIYAVGWYRQAPGKERELVATIDSGGSTNYADSVKGRFTISRDNAKNTVYLQMNSLKPVDTAVYYCNAEDKPWYYLAGQAEYDSWGQGTQVTVSS	low polyreactivity
QVQLVESGGGLVQAGGSLRLSCAASGRTFYVYVMGWYRQAPGKEREFVAAINYGSTYYADSVKGRFTISRDNAKNTVYLQMNSLKPEDTAVYYCATRSGYDSVYYFYTLWYYYWGHGTQVTVSS	low polyreactivity
QVQLVESGGGIVLAGGSLRLSCAASGSIYYANAMGWYRQAPGKERELVAVISSGGSTYYADSVNGRFTISRDNAKNTVYLHMNSLKPEDTAVYYCAAETYYYVLPHWYKYKYGYWGQGTQVTVSS	low polyreactivity
QVQLVESGGGLVQAGGSLRLSCAASGRIFRFYAMGWYRQAPGKERVLVAAITRNVGSTFYADSVKGRFTISRDNAKNTVYLQMNSLKPEDSAVFYCAAESDYYYRYTFDYWGQGTQVTVSS	low polyreactivity
QDQHVESGGGLVQAGGSLRLSCAASGFIISYYDMGWYRQPPGHESELVATIDWSGGSTYYADSVKGRFTISRDNAKNTVYLQLNSLKPEDTAVYYCNADWIFGSAPSGRYKYDYWGQGTQVTVSS	low polyreactivity
QVQLVESGGGLVQAGGSLRLRCAASGIIFPYYTMGGYRQAPGKERELVARITNGGRTYYADSVKGRFTISRDNAKNTVYLQMNSLKPEYTAVYYCIAGRYYIGGYWGQGTQVTVSS	high polyreactivity
QVQLVESGGGLVQAGGSLRLSCAASGLIFILYAMGWYRQAPGKERELVAAISWTGGSTYYADSVKGRFTISRDNAKNTVYLQMNSLKPEDTAVYYCNKVGVRSGARSIYVVRRYEYWGQGTQVTVSS	high polyreactivity
QVQLVESGVGLVQAGGSLRISCAASGRILGYYAMGWYRQAPGKEREMVAGISYSAGRTYYADSVKGRFTISRDNAKNTVYLQMNSLKPEDTAVYYCAKALVRSGSTRGTTGYYYWGQGTQVTVSS	high polyreactivity
QVQLVESGGGLVQAGGSLRLSCAASGFIFYRYARGWYRQAPGQERELVAAITTSGARTYYADSVKGRFTISRDNAKNTVYLLMNSLKPEDTAGYSCAASPTPRVKMDYWGQGTQVTVSS	low polyreactivity
